# Source: US20130084291A1
# How the values were obtained:
# TNF-alpha [1] = experiment: cell-based or functional assay
# TNF-alpha [2] = experiment: Biacore 3000 SPR; Fc fusion loaded into the flow cell, exposed to TNF
Substance,"IC50 (WEHI Assay), normalized to TNFR-h(1)Fc wt (fold of wt (normalized)) (TNF-alpha [1])","KD (TNF-alpha), normalized to TNFR-h(1)Fc wt (fold of wt (normalized)) (TNF-alpha [2])"
D47N TNFR2-h(1)Fc (Fc fusion),1.9,1.6
D47N/G253N TNFR2-h(1)Fc (Fc fusion),3,55
E155N G253N TNFR2-h(1)Fc (Fc fusion),0.57,3.6
T222N TNFR2-h(1)Fc (Fc fusion),0.25,0.78

# The next lines start with the values.
"IC50 (WEHI Assay), normalized to TNFR-h(1)Fc wt (fold of wt (normalized)) (TNF-alpha [1])","KD (TNF-alpha), normalized to TNFR-h(1)Fc wt (fold of wt (normalized)) (TNF-alpha [2])",Substance
1.1,4.4,D47N S202N TNFR2-h(1)Fc (Fc fusion)
1.6,2.6,D47N/E155N TNFR2-h(1)Fc (Fc fusion)
0.25,1,E155N S202N G253N TNFR2-h(1)Fc (Fc fusion)
0.23,1.05,S202N G253N TNFR2-h(1)Fc (Fc fusion)
0.29,0.33,T203N P205S TNFR2-h(1)Fc (Fc fusion)
